What was measured:
[1] = UBAP2L/G3BP1 immunostaining, granules per cell; settings: glycan lost; control: sunitinib without OSMI-1
[2] = CHX-chase, Western blot, ccRCC cells; settings: glycan lost; control: WT / shCtrl / untreated
[3] = Western blot of UBAP2L, ccRCC cells; settings: control: shCtrl / untreated
[4] = Flag IP, HA-Ub blot, MG132; settings: control: shCtrl
qPCR, 786-O and Caki-1 = settings: glycan lost; control: UBAP2L-WT overexpression
[5] = UBAP2L/G3BP1 immunostaining after sunitinib; settings: glycan lost; control: UBAP2L-WT overexpression
[6] = CCK-8 dose response, 786-O and Caki-1; settings: glycan lost; control: UBAP2L-WT overexpression

B1: UBAP2L: OSMI-1 (protein)
parent chain: MMTSVGTNRARGNWEQPQNQNQTQHKQRPQATAEQIRLAQMISDHNDADFEEKVKQLIDITGKNQDECVIALHDCNGDVNRAINVLLEGNPDTHSWEMVGKKKGVSGQKDGGQTESNEEGKENRDRDRDYSRRRGGPPRRGRGASRGREFRGQENGLDGTKSGGPSGRGTERGRRGRGRGRGGSGRRGGRFSAQGMGTFNPADYAEPANTDDNYGNSSGNTWNNTGHFEPDDGTSAWRTATEEWGTEDWNEDLSETKIFTASNVSSVPLPAENVTITAGQRIDLAVLLGKTPSTMENDSSNLDPSQAPSLAQPLVFSNSKQTAISQPASGNTFSHHSMVSMLGKGFGDVGEAKGGSTTGSQFLEQFKTAQALAQLAAQHSQSGSTTTSSWDMGSTTQSPSLVQYDLKNPSDSAVHSPFTKRQAFTPSSTMMEVFLQEKSPAVATSTAAPPPPSSPLPSKSTSAPQMSPGSSDNQSSSPQPAQQKLKQQKKKASLTSKIPALAVEMPGSADISGLNLQFGALQFGSEPVLSDYESTPTTSASSSQAPSSLYTSTASESSSTISSNQSQESGYQSGPIQSTTYTSQNNAQGPLYEQRSTQTRRYPSSISSSPQKDLTQAKNGFSSVQATQLQTTQSVEGATGSAVKSDSPSTSSIPPLNETVSAASLLTTTNQHSSSLGGLSHSEEIPNTTTTQHSSTLSTQQNTLSSSTSSGRTSTSTLLHTSVESEANLHSSSSTFSTTSSTVSAPPPVVSVSSSLNSGSSLGLSLGSNSTVTASTRSSVATTSGKAPPNLPPGVPPLLPNPYIMAPGLLHAYPPQVYGYDDLQMLQTRFPLDYYSIPFPTPTTPLTGRDGSLASNPYSGDLTKFGRGDASSPAPATTLAQPQQNQTQTHHTTQQTFLNPALPPGYSYTSLPYYTGVPGLPSTFQYGPAVFPVAPTSSKQHGVNVSVNASATPFQQPSGYGSHGYNTGVSVTSSNTGVPDISGSVYSKTQQSFEKQGFHSGTPAASFNLPSALGSGGPINPATAAAYPPAPFMHILTPHQQPHSQILHHHLQQDGQTGSGQRSQTSSIPQKPQTNKSAYNSYSWGAN
other: stress granule formation [1]: decreases | degradation_or_half_life [2]: decreases | expression_or_secretion ([3]; glycan lost): decreases

B2: UBAP2L: OGT knockdown (protein)
parent chain: B1 parent chain
degradation_or_half_life [2]: decreases | expression_or_secretion ([3]; glycan lost): decreases

B3: UBAP2L: OGA knockdown (protein)
parent chain: B1 parent chain
expression_or_secretion ([3]; glycan gained): increases

B4: UBAP2L: shOGT (protein)
parent chain: B1 parent chain
other: ubiquitination ([4]; glycan lost): increases

B5: UBAP2L: shOGA (protein)
parent chain: B1 parent chain
other: ubiquitination ([4]; glycan gained): decreases

B6: UBAP2L: UBAP2L-MUT (S305A) (protein)
parent chain: B1 parent chain
other: Melk mRNA level (qPCR, 786-O and Caki-1): decreases

B7: UBAP2L: S305A (protein)
parent chain: B1 parent chain
degradation_or_half_life [2]: decreases | other: stress granule formation [5]: decreases | other: sunitinib resistance of cells, IC50 [6]: decreases
